In article PMC420458 (BMC Cell Biology, 2004):

T1: GST-HEF1 (human, UniProt Q14511 1-834)
T1 sequence: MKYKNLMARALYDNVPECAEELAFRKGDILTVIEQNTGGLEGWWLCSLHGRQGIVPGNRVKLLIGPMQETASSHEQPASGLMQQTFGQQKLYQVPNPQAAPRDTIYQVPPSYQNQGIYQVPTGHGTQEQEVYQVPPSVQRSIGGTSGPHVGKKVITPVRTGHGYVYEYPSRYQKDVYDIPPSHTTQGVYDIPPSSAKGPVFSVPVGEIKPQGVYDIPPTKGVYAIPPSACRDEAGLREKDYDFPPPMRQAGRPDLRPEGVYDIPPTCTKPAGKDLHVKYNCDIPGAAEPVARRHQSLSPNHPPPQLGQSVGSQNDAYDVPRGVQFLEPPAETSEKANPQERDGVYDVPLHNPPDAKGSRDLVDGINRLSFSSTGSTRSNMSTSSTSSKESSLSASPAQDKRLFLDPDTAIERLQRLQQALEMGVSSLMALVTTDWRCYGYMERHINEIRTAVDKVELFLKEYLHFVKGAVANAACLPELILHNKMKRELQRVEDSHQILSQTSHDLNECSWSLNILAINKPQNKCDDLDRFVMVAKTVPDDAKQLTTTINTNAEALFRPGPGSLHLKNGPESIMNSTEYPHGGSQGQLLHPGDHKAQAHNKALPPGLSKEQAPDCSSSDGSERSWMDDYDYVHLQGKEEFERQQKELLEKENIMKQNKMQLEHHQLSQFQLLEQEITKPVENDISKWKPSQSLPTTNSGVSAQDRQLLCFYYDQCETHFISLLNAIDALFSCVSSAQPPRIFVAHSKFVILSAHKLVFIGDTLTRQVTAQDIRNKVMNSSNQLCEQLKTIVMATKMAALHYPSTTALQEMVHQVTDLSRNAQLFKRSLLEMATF

B1: Smad3/Smad1/Smad3 chimera (other)
chain: MSSILPFTPPIVKRLLGWKKGEQNGQEEKWCEKAVKSLVKKLKKTGQLDELEKAITTQNVNTKCITIPRSLDGRLQVSHRKGLPHVIYCRLWRWPDLHSHHELRAMELCEFAFNMKKDEVCVNPYHYQRVETPVLPPVLVPRHTEIPAEFPPLDDYSHSIPENTNFPAGIEPQSNIPETPPPGYLSEDGETSDHQMNHSMDAGSPNLSPNPMSPAHNNLDLQPVTYCEPAFWCSISYYELNNRVGEAFHASSTSVLVDGFTDPSNNKNRFCLGLLSNVVNRNAAVELTRRHIGRGVRLYYIGGEVFAECLSDSAIFVQSPNCNQRYGWHPATVCKIPPGCNLKIFNNQEFAALLAQSVNQGFEAVYQLTRMCTIRMSFVKGWGAEYRRQTVTSTPCWIELHLNGPLQWLDKVLTQMGSPSIRCSSV
B2: Flag-tagged Smad3 d2 (domain or fragment)
chain: MSSILPFTPPIVKRLLGWKKGEQNGQEEKWCEKAVKSLVKKLKKTGQLDELEKAITTQNVNTKCITIPRSLDGRLQVSHRKGLPHVIYCRLWRWPDLHSHHELRAMELCEFAFNMKKDEVCVNPYHYQRVETPVLPPVLVPRHTEIPAEFPPLDDYSHSIPENTNFPAGIEPQSNIPETPPPGYLSEDGETSDHQMNHSMDAGSPNLSPNPMSPAHNNLDLQPVTYCEPAFWCSISYYELNQRVGETFHASQPSMTVDGFTDPSNSERFCLGLLSNVNRNAAVELTRRHIGRGVRLYYIGGEVFAECLSDSAIFVQSPNCNQRYGWHPATVCKIPPGCNLKIFNNQEFAALLAQSVNQGFE
B3: Flag-tagged Smad3 d6 (domain or fragment)
chain: MSSILPFTPPIVKRLLGWKKGEQNGQEEKWCEKAVKSLVKKLKKTGQLDELEKAITTQNVNTKCITIPRSLDGRLQVSHRKGLPHVIYCRLWRWPDLHSHHELRAMELCEFAFNMKKDEVCVNPYHYQRVETPVLPPVLVPRHTEIPAEFPPLDDYSHSIPENTNFPAGIEPQSNIPETPPPGYLSEDGETSDHQMNHSMDAGSPNLSPNPMSPAHNNLDLQPVTYCEPAFWCSISYYELNQRVGETFHASQPSMTVDGFTDPSNSERFCLGLLSNVNRNAAVELTRRHIGRGVRLYYIGGEVFAECLSDSAIFVQSPNCNQRYGWHPA
B4: Flag-tagged Smad3 d4 (domain or fragment)
chain: MSSILPFTPPIVKRLLGWKKGEQNGQEEKWCEKAVKSLVKKLKKTGQLDELEKAITTQNVNTKCITIPRSLDGRLQVSHRKGLPHVIYCRLWRWPDLHSHHELRAMELCEFAFNMKKDEVCVNPYHYQRVETPVLPPVLVPRHTEIPAEFPPLDDYSHSIPENTNFPAGIEPQSNIPETPPPGYLSEDGETSDHQMNHSMDAGSPNLSPNPMSPAHNNLDLQPVTYCEPAFWCSISYYELNQRVGETFHASQPSMTVDGFTDPSNSERFCLGLLSNVNRNAAVELTRRHIGRGVRLYYIG

Biological target: T1, GST-HEF1
Experiment: pull-down

| percent of input protein bound (densitometry) | Binder |
| --- | --- |
| 24% | B1 |
| 21% | B2 |
| 23% | B3 |
| 13% | B4 |

Biological target: GST-APC10 (UniProt Q9UM13 1-185)
Sequence (Q9UM13 whole entry): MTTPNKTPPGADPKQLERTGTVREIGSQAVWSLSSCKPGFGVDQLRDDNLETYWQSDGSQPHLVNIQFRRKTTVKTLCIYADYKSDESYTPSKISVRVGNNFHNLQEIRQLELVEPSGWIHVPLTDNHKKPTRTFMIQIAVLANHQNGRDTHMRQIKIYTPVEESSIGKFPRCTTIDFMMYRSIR
Experiment: pull-down

| percent of input protein bound (densitometry) | Binder |
| --- | --- |
| 20% | B1 |
| 95% | B2 |
| 34% | B3 |
| 17% | B4 |
